According to doi:10.1101/2021.10.14.464379 (bioRxiv, 2021):

Biological target: the molecule itself
Test: SAXS

B1: Ipomoea batatas BAM5 (sweet potato beta-amylase) (enzyme)
chain: APIPGVMPIGNYVSLYVMLPLGVVNADNVFPDKEKVEDELKQVKAGGCDGVMVDVWWGIIEAKGPKQYDWSAYRELFQLVKKCGLKIQAIMSFHQCGGNVGDAVFIPIPQWILQIGDKNPDIFYTNRAGNRNQEYLSLGVDNQRLFQGRTALEMYRDFMESFRDNMADFLKAGDIVDIEVGCGAAGELRYPSYPETQGWVFPGIGEFQCYDKYMVADWKEAVKQAGNADWEMPGKGAGTYNDTPDKTEFFRPNGTYKTDMGKFFLTWYSNKLIIHGDQVLEEANKVFVGLRVNIAAKVSGIHWWYNHVSHAAELTAGFYNVAGRDGYRPIARMLARHHATLNFTCLEMRDSEQPAEAKSAPQELVQQVLSSGWKEYIDVAGENALPRYDATAYNQMLLNVRPNGVNLNGPPKLKMSGLTYLRLSDDLLQTDNFELFKKFVKKMHADLDPSPNAISPAVLERSNSAITIDELMEATKGSRPFPWYDVTDMPVDGSNPFD
- stoichiometry N: 4
